Measured values reported in the supplement of paper PMC7125110.
± gives the standard error. Variants at the floor of the assay were thinned out.

B1: glmS ribozyme (parent)
chain: AUAAAAGCGCCAGAACUACAGAAAUGUAGUUGACGAGGAGGAGGUUUAUCGAAUUUUCGGCGGAUGCCUCCAAA

How the values were obtained:
Details in all cases: with glucosamine-6-phosphate
[1] = variants of: B1; experiment: self-cleavage kobs at 40 uM GlcN6P; higher = faster cleavage; RNA array
Summary of the method: (§1)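 Tracking of barcoded ribozyme variants used a hybridised Cy3 probe at 37 °C, after in situ transcription by E. coli RNA polymerase on sequenced MiSeq chips. The flowed solution held 40 μM to 10 mM glucosamine-6-phosphate in HEPES/KCl/Mg(OAc)2 buffer, and imaging ran over ~14 h. kobs was taken from exponential decay fits of normalised per-tile medians, and kcat and KM from weighted Michaelis–Menten fits.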

[2] = variants of: B1; experiment: self-cleavage kobs at 10000 uM GlcN6P; higher = faster cleavage; RNA array
Summary of the method: as §1

[3] = variants of: B1; experiment: self-cleavage kobs at 640 uM GlcN6P; higher = faster cleavage; RNA array
Summary of the method: as §1

[4] = variants of: B1; experiment: self-cleavage kobs at 2500 uM GlcN6P; higher = faster cleavage; RNA array
Summary of the method: as §1

[5] = variants of: B1; experiment: self-cleavage kobs at 160 uM GlcN6P; higher = faster cleavage; RNA array
Summary of the method: as §1

| Variant | self-cleavage kobs at 40 uM GlcN6P [1] [s⁻¹] | self-cleavage kobs at 10000 uM GlcN6P [2] [s⁻¹] | self-cleavage kobs at 640 uM GlcN6P [3] [s⁻¹] | self-cleavage kobs at 2500 uM GlcN6P [4] [s⁻¹] | self-cleavage kobs at 160 uM GlcN6P [5] [s⁻¹] |
| --- | --- | --- | --- | --- | --- |
| C8G A39G G59C | < 1e-05 | < 1e-05 |  |  |  |
| G7U G38A A48G G60C | < 1e-05 | < 1e-05 |  |  |  |
| C10U G29A U47G | < 1e-05 |  |  |  |  |
| G9A A12U G13C G40C | < 1e-05 | < 1e-05 |  |  |  |
| G9C G66A | < 1e-05 | < 1e-05 | < 1e-05 |  |  |
| C8A G59C | < 1e-05 |  | < 1e-05 | < 1e-05 |  |
| C8A G66C | < 1e-05 |  |  | < 1e-05 |  |
| C8G G59C | < 1e-05 | < 1e-05 | < 1e-05 |  |  |
| G7U U31C C68G | 0.000102 ± 3.2e-05 |  |  |  |  |
| C8U A53C | < 1e-05 | < 1e-05 | < 1e-05 | < 1e-05 | < 1e-05 |
| C10A U49A | < 1e-05 |  | < 1e-05 |  | < 1e-05 |
| C10G C11U | < 1e-05 |  | < 1e-05 |  |  |
| C10U A14C A36G G41A | < 1e-05 |  | < 1e-05 | < 1e-05 | < 1e-05 |
| G7C U46G C67G | < 1e-05 | < 1e-05 |  |  |  |
| C10G A33C | < 1e-05 | < 1e-05 |  | < 1e-05 | < 1e-05 |
| G9A A53C | < 1e-05 | < 1e-05 | < 1e-05 | < 1e-05 | < 1e-05 |
| C8A G35C C67A | < 1e-05 |  | < 1e-05 |  | < 1e-05 |
| C10U G35U A39U A48G | < 1e-05 | < 1e-05 | < 1e-05 | < 1e-05 | < 1e-05 |
| G7U A33G | < 1e-05 |  | < 1e-05 | < 1e-05 | < 1e-05 |
| C10U G59C | < 1e-05 | < 1e-05 | < 1e-05 |  | < 1e-05 |
| G9C U57A | < 1e-05 |  | < 1e-05 | < 1e-05 |  |
| C8G U30C | < 1e-05 | < 1e-05 |  | < 1e-05 |  |
| C10A G59C | < 1e-05 | < 1e-05 | < 1e-05 | < 1e-05 | < 1e-05 |
| C10A U31A C58G C67A | 4.23e-05 ± 1.8e-05 | 3.62e-05 ± 1.5e-05 | 0.00013 ± 3.4e-05 | 0.000317 ± 0.00016 |  |

| Variant | self-cleavage kobs at 40 uM GlcN6P [1] [s⁻¹] | self-cleavage kobs at 10000 uM GlcN6P [2] [s⁻¹] | self-cleavage kobs at 640 uM GlcN6P [3] [s⁻¹] | self-cleavage kobs at 2500 uM GlcN6P [4] [s⁻¹] | self-cleavage kobs at 160 uM GlcN6P [5] [s⁻¹] |
| --- | --- | --- | --- | --- | --- |
| G9U C58A | < 1e-05 | < 1e-05 |  |  |  |
| G7C U47C A64U | < 1e-05 | < 1e-05 |  |  |  |
| C10U G13A C67A | < 1e-05 | < 1e-05 | < 1e-05 |  |  |
| C8A A39C | < 1e-05 | < 1e-05 | < 1e-05 |  | < 1e-05 |
| C10A U47A | < 1e-05 |  | < 1e-05 |  | < 1e-05 |
| C10G A36G | < 1e-05 | < 1e-05 | < 1e-05 |  |  |
| C8G G41U C71U | < 1e-05 | < 1e-05 |  |  |  |
| C8A U57A G63A | < 1e-05 |  |  | < 1e-05 |  |
| C8U G41A | < 1e-05 | < 1e-05 | < 1e-05 | < 1e-05 | < 1e-05 |
| G9C G51A A52U C70G | < 1e-05 |  | < 1e-05 |  |  |
| C8U A48C | < 1e-05 | < 1e-05 | < 1e-05 |  |  |
| C10A C61U | < 1e-05 |  |  | < 1e-05 |  |
| G9U C11G | < 1e-05 | < 1e-05 |  | < 1e-05 |  |
| C8G G63A | < 1e-05 | < 1e-05 | < 1e-05 | < 1e-05 | < 1e-05 |
| C8G G63U | < 1e-05 | < 1e-05 |  |  |  |
| C8G G13U | < 1e-05 | < 1e-05 | < 1e-05 | < 1e-05 | < 1e-05 |
| G7U G35U A39U | < 1e-05 |  |  |  |  |
| C8G G51U A64G | < 1e-05 | < 1e-05 |  |  |  |
| G7U A53G U69G | 8.14e-05 ± 2.1e-05 | 9.89e-05 ± 2e-05 | 0.000822 ± 0.00023 | 9.39e-05 ± 3.9e-05 |  |
| C10G C11G G63C | < 1e-05 | < 1e-05 |  |  |  |
| C10G G32U A53G C58G G60C | < 1e-05 | 0.000266 ± 4.4e-05 |  |  |  |
| G9A U47C | < 1e-05 |  | < 1e-05 | < 1e-05 | < 1e-05 |
| C8U C50A G51A U69G | 0.00046 ± 0.00016 | 0.000709 ± 0.00014 |  |  |  |
| C10G U30A | < 1e-05 | < 1e-05 | < 1e-05 | < 1e-05 | < 1e-05 |

| Variant | self-cleavage kobs at 40 uM GlcN6P [1] [s⁻¹] | self-cleavage kobs at 10000 uM GlcN6P [2] [s⁻¹] | self-cleavage kobs at 640 uM GlcN6P [3] [s⁻¹] | self-cleavage kobs at 2500 uM GlcN6P [4] [s⁻¹] | self-cleavage kobs at 160 uM GlcN6P [5] [s⁻¹] |
| --- | --- | --- | --- | --- | --- |
| G7U C10G A15U C34A G40U C58G G60C G63A | < 1e-05 | < 1e-05 | < 1e-05 |  |  |
| G9C U54A | < 1e-05 | < 1e-05 |  |  | < 1e-05 |
| G7U G35C U55G A64C | < 1e-05 |  |  |  |  |
| C8U G59A | < 1e-05 | < 1e-05 | < 1e-05 |  | < 1e-05 |
| G7U G62U | < 1e-05 |  | < 1e-05 | < 1e-05 | < 1e-05 |
| C8A G29U U57A G62C C67U | < 1e-05 |  |  |  |  |
| G9C G43U G44U C58A C71A | < 1e-05 |  |  |  |  |
| C8U U54A | < 1e-05 | < 1e-05 | < 1e-05 | < 1e-05 | < 1e-05 |
| G9C G13U | < 1e-05 | < 1e-05 | < 1e-05 | < 1e-05 | < 1e-05 |
| G7C G62U | < 1e-05 | < 1e-05 |  | < 1e-05 |  |
| G9U G40C | < 1e-05 | < 1e-05 | < 1e-05 |  | < 1e-05 |
| G9A G40C | < 1e-05 |  | < 1e-05 |  | < 1e-05 |
| C10U G32U A64C | < 1e-05 | < 1e-05 |  |  |  |
| C10G C34U G38C A64C C67U | < 1e-05 | < 1e-05 |  |  |  |
| G9U G13A A36U G38A U65G | < 1e-05 | < 1e-05 |  |  |  |
| C8G U46G | < 1e-05 | < 1e-05 | < 1e-05 | < 1e-05 | < 1e-05 |
| C8G U46A C70G | < 1e-05 |  |  |  |  |
| C8A U31A | < 1e-05 |  |  |  |  |
| C10U A33G C70U | < 1e-05 | < 1e-05 |  |  |  |
| C8G G29C A64G | < 1e-05 |  |  |  |  |
| C8A C58G | < 1e-05 |  | < 1e-05 |  | < 1e-05 |
| C8A G43U | < 1e-05 | < 1e-05 |  | < 1e-05 |  |
| C8A U31A C50G A53U C70A | 0.000306 ± 7.3e-05 | 0.000515 ± 0.00016 |  |  |  |
| C10A G51C | < 1e-05 | < 1e-05 | < 1e-05 |  |  |

| Variant | self-cleavage kobs at 40 uM GlcN6P [1] [s⁻¹] | self-cleavage kobs at 10000 uM GlcN6P [2] [s⁻¹] | self-cleavage kobs at 640 uM GlcN6P [3] [s⁻¹] | self-cleavage kobs at 2500 uM GlcN6P [4] [s⁻¹] | self-cleavage kobs at 160 uM GlcN6P [5] [s⁻¹] |
| --- | --- | --- | --- | --- | --- |
| C8G A12C U31C G32C | < 1e-05 |  |  |  |  |
| C8G U55A | < 1e-05 | < 1e-05 | < 1e-05 | < 1e-05 |  |
| C8G U55C | < 1e-05 |  | < 1e-05 |  | < 1e-05 |
| G9C U47G | < 1e-05 | < 1e-05 |  |  |  |
| G9C G43A | < 1e-05 | < 1e-05 |  |  |  |
| G9U U45G A53G G62U | < 1e-05 | < 1e-05 |  |  |  |
| C10U A12G G13C | < 1e-05 | < 1e-05 |  |  |  |
| C10A U47G G63C C68G | 9.61e-05 ± 3.8e-05 |  |  |  |  |
| C10G U69A | < 1e-05 |  |  |  |  |
| C8A U30A A48G | < 1e-05 | < 1e-05 |  |  |  |
| C8A A36G | < 1e-05 | < 1e-05 | < 1e-05 | < 1e-05 | < 1e-05 |
| C8A A36C | < 1e-05 | < 1e-05 |  | < 1e-05 | < 1e-05 |
| C10G C70U | < 1e-05 |  |  |  |  |
| G9U G32U G41U A53C | < 1e-05 | < 1e-05 |  |  |  |
| G9U A14C A52C | < 1e-05 | < 1e-05 |  | < 1e-05 |  |
| G9A U47C G51U G63A | < 1e-05 | < 1e-05 |  | < 1e-05 |  |
| C10G C61U | < 1e-05 | < 1e-05 | < 1e-05 |  | < 1e-05 |
| G7U C8U C67U | < 1e-05 |  |  |  |  |
| C10U C11A A39C A42U U47C G66C | < 1e-05 |  |  |  |  |
| C10A G37C G38A A64U U65C | < 1e-05 |  |  | < 1e-05 |  |
| C8A U56A | < 1e-05 | < 1e-05 | < 1e-05 | < 1e-05 | < 1e-05 |
